This data set concerns HEK293T. The data set can be described thus: plasma membrane surface immunostaining intensity (anti-HA, deep receptor scanning) (arbitrary fluorescence units); higher = higher plasma membrane expression.

± gives the uncertainty stated by the source.

Consider “MAWENQTFNSDFILLGIFNHSPTHTFLFFLVLAIFSVAFMGNSVMVLLIYLDTQLHTPMYFLLSQLFLMDLMLICSTVPKMAFNYLSGSKSISMAGCATQIFFYVSLLGSECFLLAVMSYDRYIAICHPLRYTNLMRPKICGLMTAFSWILGSMDAIIDAVATFSFSYCGSREIAHFFCDFPSLLILSCNDTSIFEKVLFICCIVMIVFPVAIIIASYARVILAVIHMGSGEGRRKAFTTCSSHLMVVGMYYGAGLFMYIRPTSDRSPMQDKLVSVFYTILTPMLNPLIYSLRNKEVTRALRKVLGKGKCGE [OR2M5]”, for which, where the note is “GPCR class: A (Olfactory)”, the “plasma membrane surface immunostaining intensity” value was 111 ± 20.

Consider “MEHTHAHLAANSSLSWWSPGSACGLGFVPVVYYSLLLCLGLPANILTVIILSQLVARRQKSSYNYLLALAAADILVLFFIVFVDFLLEDFILNMQMPQVPDKIIEVLEFSSIHTSIWITVPLTIDRYIAVCHPLKYHTVSYPARTRKVIVSVYITCFLTSIPYYWWPNIWTEDYISTSVHHVLIWIHCFTVYLVPCSIFFILNSIIVYKLRRKSNFRLRGYSTGKTTAILFTITSIFATLWAPRIIMILYHLYGAPIQNRWLVHIMSDIANMLALLNTAINFFLYCFISKRFRTMAAATLKAFFKCQKQPVQFYTNHNFSITSSPWISPANSHCIKMLVYQYDKNGKPIKVSP [GPR139]”, for which, under “GPCR class: A”, the “plasma membrane surface immunostaining intensity” value is 3010 ± 800.

“MVNLRNAVHSFLVHLIGLLVWQSDISVSPVAAIVTDIFNTSDGGRFKFPDGVQNWPALSIVIIIIMTIGGNILVIMAVSMEKKLHNATNYFLMSLAIADMLVGLLVMPLSLLAILYDYVWPLPRYLCPVWISLDVLFSTASIMHLCAISLDRYVAIRNPIEHSRFNSRTKAIMKIAIVWAISIGVSVPIPVIGLRDEEKVFVNNTTCVLNDPNFVLIGSFVAFFIPLTIMVITYCLTIYVLRRQALMLLHGHTEEPPGLSLDFLKCCKRNTAEEENSANPNQDQNARRRKKKERRPRGTMQAINNERKASKVLGIVFFVFLIMWCPFFITNILSVLCEKSCNQKLMEKLLNVFVWIGYVCSGINPLVYTLFNKIYRRAFSNYLRCNYKVEKKPPVRQIPRVAATALSGRELNVNIYRHTNEPVIEKASDNEPGIEMQVENLELPVNPSSVVSERISSV [HTR2C]”: the “plasma membrane surface immunostaining intensity” value (GPCR class: A) was 974 ± 180.
